Experimental data from PMC3597040.

Tests used:
[1] = biological target: AfTrax D114A catalytic mutant (Archaeoglobus fulgidus); assay: crystal structure
[2] = biological target: AfTrax (Archaeoglobus fulgidus Trax homologue, AF2260), wild type (Archaeoglobus fulgidus); assay: crystal structure
[3] = biological target: AfTrax (Archaeoglobus fulgidus Trax homologue, AF2260), wild type (Archaeoglobus fulgidus); assay: SEC

| Substance | stoichiometry N [1] | stoichiometry N [2] | stoichiometry N [3] |
| --- | --- | --- | --- |
| AfTrax D114A catalytic mutant (natural protein) | 8 | – | – |
| AfTrax (Archaeoglobus fulgidus Trax homologue, AF2260), wild type (natural protein) | – | 8 | 8 |
